According to patent US20110008345A1 (GlaxoSmithKline, published 2011):

Columns and labels:
[1] = target: T1, recombinant E. coli-expressed human IL-4 (human, UniProt P05112 25-153); assay: SPR exp 2
T1 construct: made and purified at GSK; also called Interleukin-4; rhIL-4
T1 sequence: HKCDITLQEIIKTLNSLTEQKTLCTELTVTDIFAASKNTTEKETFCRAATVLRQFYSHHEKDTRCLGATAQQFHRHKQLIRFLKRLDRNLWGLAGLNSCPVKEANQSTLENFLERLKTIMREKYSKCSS

[2] = target: T1, recombinant E. coli-expressed human IL-4; assay: SPR exp 1
[3] = target: T1, recombinant E. coli-expressed human IL-4; assay: SPR exp 2; remark: listed apart in the source
[4] = target: T1, recombinant E. coli-expressed human IL-4; assay: SPR exp 1; remark: listed apart in the source
[5] = target: T1, recombinant E. coli-expressed human IL-4; assay: SPR
[6] = target: T1, recombinant E. coli-expressed human IL-4; assay: SPR stoichiometry
[7] = target: T1, recombinant E. coli-expressed human IL-4; assay: cell-based or functional assay
[8] = target: T1, recombinant E. coli-expressed human IL-4; assay: SPR, purified
[9] = target: T2, recombinant E. coli-expressed human IL-13 (human, UniProt P35225 35-146); assay: SPR
T2 construct: made and purified at GSK; also called Interleukin-13; rhIL-13

[10] = target: T1, recombinant E. coli-expressed human IL-4; assay: SPR, purified; remark: listed apart in the source
[11] = target: T1, recombinant E. coli-expressed human IL-4; assay: ELISA, IL-4 binding to IL4Ralpha-Fc
[12] = target: T3, recombinant E. coli-expressed cynomolgus IL-4 (cynomolgus, UniProt P79339 25-153); assay: SPR
T3 construct: also called cyno IL-4
T3 sequence (looked up): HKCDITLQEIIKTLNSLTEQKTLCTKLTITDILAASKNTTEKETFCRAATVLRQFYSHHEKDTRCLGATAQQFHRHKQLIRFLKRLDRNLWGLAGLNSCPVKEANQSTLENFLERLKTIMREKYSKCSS

[13] = target: T4, recombinant E. coli-expressed cynomolgus IL-13 (cynomolgus, UniProt Q0PW92 21-132); assay: SPR
T4 construct: also called cyno IL-13

[14] = target: T1, recombinant E. coli-expressed human IL-4; assay: SPR exp 1; remark: listed apart in the source
[15] = target: T1, recombinant E. coli-expressed human IL-4; assay: SPR; remark: listed apart in the source
[16] = target: T1, recombinant E. coli-expressed human IL-4; assay: SPR; remark: listed apart in the source
[17] = target: T3, recombinant E. coli-expressed …; assay: cell-based or functional assay
[18] = target: T1, recombinant E. coli-expressed human IL-4; assay: cell-based or functional assay; remark: listed apart in the source
[19] = target: T1, recombinant E. coli-expressed human IL-4; assay: SPR; remark: listed apart in the source
[20] = target: T1, recombinant E. coli-expressed human IL-4; assay: SPR exp 3
[21] = target: T1, recombinant E. coli-expressed human IL-4; assay: SPR exp 2; remark: listed apart in the source
HEL (Hen Egg Lysozyme) = target: T5, HEL (Hen Egg Lysozyme) (hen, UniProt P00698 19-147); assay: ELISA
T5 construct: also called hen egg white lysozyme
T5 sequence (P00698 19-147): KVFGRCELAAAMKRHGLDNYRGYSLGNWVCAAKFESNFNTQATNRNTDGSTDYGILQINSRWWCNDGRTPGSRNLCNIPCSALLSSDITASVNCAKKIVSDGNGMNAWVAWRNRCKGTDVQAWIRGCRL

[22] = target: recombinant Sf21-expressed human IL-5 (human, UniProt P05113 20-134); assay: ELISA
[23] = target: T6, Recombinant Human HGF R (c-MET)/Fc Chimera (human, UniProt P08581 25-932); assay: ELISA
T6 construct: bought; also called HGF receptor
T6 sequence (P08581 25-932 limits assumed, change not shown): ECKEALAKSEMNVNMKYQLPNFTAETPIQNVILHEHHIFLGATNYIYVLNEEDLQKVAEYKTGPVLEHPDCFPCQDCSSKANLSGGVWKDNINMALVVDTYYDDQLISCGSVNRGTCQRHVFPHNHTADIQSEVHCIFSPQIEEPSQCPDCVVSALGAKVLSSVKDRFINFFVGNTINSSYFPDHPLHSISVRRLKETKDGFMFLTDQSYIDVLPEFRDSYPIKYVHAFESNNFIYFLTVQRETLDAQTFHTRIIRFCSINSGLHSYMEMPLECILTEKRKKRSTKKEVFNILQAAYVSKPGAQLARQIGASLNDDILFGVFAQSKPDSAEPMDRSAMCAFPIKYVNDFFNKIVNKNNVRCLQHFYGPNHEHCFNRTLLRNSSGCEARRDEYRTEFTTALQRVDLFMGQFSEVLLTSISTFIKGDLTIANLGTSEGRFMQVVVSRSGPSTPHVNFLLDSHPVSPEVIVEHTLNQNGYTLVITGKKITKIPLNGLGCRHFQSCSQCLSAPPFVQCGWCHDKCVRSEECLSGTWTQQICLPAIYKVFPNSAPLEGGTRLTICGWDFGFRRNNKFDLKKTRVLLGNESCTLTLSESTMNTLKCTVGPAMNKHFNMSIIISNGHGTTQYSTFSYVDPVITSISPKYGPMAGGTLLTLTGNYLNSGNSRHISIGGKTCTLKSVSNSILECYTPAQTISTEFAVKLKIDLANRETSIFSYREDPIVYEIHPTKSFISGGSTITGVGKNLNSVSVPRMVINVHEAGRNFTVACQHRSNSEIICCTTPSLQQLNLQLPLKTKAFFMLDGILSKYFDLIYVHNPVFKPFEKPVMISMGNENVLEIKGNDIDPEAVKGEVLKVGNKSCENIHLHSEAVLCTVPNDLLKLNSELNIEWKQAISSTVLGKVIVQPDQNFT

[24] = target: recombinant E. coli-expressed human IL-18 (human, UniProt Q14116 37-193); assay: ELISA
recombinant human IL-12 = target: T7, recombinant human IL-12 (human, UniProt P29459 23-219; P29460 23-328); assay: ELISA
T7 sequence (looked up) 1: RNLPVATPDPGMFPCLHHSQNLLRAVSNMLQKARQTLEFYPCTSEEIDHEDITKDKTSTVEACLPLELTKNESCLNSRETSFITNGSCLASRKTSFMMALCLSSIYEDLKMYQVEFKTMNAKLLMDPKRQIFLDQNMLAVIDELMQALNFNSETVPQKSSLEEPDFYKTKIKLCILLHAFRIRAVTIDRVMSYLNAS
T7 sequence (looked up) 2: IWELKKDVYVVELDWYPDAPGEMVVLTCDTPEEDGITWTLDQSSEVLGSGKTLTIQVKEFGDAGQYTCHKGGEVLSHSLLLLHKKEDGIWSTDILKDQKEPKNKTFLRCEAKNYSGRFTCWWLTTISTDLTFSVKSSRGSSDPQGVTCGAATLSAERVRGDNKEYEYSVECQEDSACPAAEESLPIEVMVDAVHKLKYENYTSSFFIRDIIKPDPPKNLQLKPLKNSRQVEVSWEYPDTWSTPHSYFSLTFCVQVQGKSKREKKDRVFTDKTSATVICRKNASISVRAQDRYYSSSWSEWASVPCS

RNAse A = target: T8, RNAse A (UniProt P61823 27-150); assay: ELISA
T8 sequence (looked up): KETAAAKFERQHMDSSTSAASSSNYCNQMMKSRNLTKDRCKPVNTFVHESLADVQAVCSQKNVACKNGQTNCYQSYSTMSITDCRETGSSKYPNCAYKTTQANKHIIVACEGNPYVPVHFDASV

[25] = target: recombinant human TNF-alpha (human, UniProt P01375 77-233); assay: ELISA
recombinant human VEGF = target: T9, recombinant human VEGF (human, UniProt P15692-4 27-191); assay: ELISA
T9 construct: also called VEGF165; hVEGF165

B1: Pascolizumab (Anti-human IL-4 monoclonal antibody) (antibody, human IgG1, kappa, V domains shown)
VH: QVTLRESGPALVKPTQTLTLTCTFSGFSLSTSGMGVSWIRQPPGKGLEWLAHIYWDDDKRYNPSLKSRLTISKDTSRNQVVLTMTNMDPVDTATYYCARRETVFYWYFDVWGRGTLVTVSS
VL: DIVLTQSPSSLSASVGDRVTITCKASQSVDYDGDSYMNWYQQKPGKAPKLLIYAASNLESGIPSRFSGSGSGTDFTFTISSLQPEDIATYYCQQSNEDPPTFGQGTKVEIKR
notes: also called anti-human IL4 mAb; IL-4 mAb
Kd [1]: 0.011 nM | Kd [2]: 0.0137 nM | Kd [3]: 0.06 nM | koff [3]: 0.000123 s⁻¹ | kon [3]: 2.04e+06 M⁻¹ s⁻¹ | Kd [4]: 0.03 nM | koff [4]: 0.00016 s⁻¹ | kon [4]: 5.3e+06 M⁻¹ s⁻¹ | Kd [5]: 0.037 nM | Stoichiometry [6]: 1.8 | Mean IC50 (whole blood phospho-STAT6) [7]: 2.44 nM | Kd [8]: 0.03 nM | binding result [9]: no binding | Kd [10]: 0.037 nM | IC50 [11]: 3.45 nM | Kd [12]: 0.046 nM | koff [12]: 0.000108 s⁻¹ | kon [12]: 2.34e+06 M⁻¹ s⁻¹ | binding result [13]: no binding | Kd [14]: 0.0137 nM | Kd [15]: 0.06 nM | koff [15]: 0.000123 s⁻¹ | kon [15]: 2.04e+06 M⁻¹ s⁻¹ | Kd [16]: 0.00572 nM | koff [16]: 2.43e-05 s⁻¹ | kon [16]: 4.25e+06 M⁻¹ s⁻¹ | Mean ND50 (TF-1) [17]: 2.62 nM | Mean ND50 (TF-1) [18]: 1.36 nM | Kd [19]: 0.02 nM | Kd [20]: 0.013 nM | Kd [21]: 0.011 nM | binding result (HEL (Hen Egg Lysozyme)): no binding | binding result [22]: no binding | binding result [23]: no binding | binding result [24]: no binding | binding result (recombinant human IL-12): no binding | binding result (RNAse A): no binding (tested: 2 ug/mL) | binding result [25]: no binding (tested: 1 ug/ml) | binding result (recombinant human VEGF): no binding
